# T1: recombinant cynomolgus monkey PD-1 expressed with a C-terminal myc-myc-hexahistidine tag (cynomolgus monkey (Macaca fascicularis))
# T1 construct: monomeric; also called MfPD-1-MMH
# T1 chain: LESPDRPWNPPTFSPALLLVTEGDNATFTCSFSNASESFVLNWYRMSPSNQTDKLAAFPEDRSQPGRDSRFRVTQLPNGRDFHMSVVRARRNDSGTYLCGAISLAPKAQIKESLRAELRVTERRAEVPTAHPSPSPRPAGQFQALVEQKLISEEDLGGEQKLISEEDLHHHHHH
# Columns and labels:
# [1] = biological target: T2, recombinant human PD-1 expressed with a C-terminal myc-myc-hexahistidine tag (human); experiment: SPR (Biacore), mAb captured, hPD-1-MMH injected, 25 C;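 note: rate constants obtained by fitting sensorgrams to a 1:1 binding model, KD derived as kd/ka and half-life as ln2/(60·kd) in minutes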
# T2 construct: also called hPD-1-MMH; human PD-1-MMH
# [2] = biological target: T1, recombinant cynomolgus monkey PD-1 …; experiment: SPR, mAb captured, 25C;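 for result: rates from fitting Biacore data for PD-1 binding to anti-PD-1 antibodies with a 1:1 model, KD computed as koff/kon and t½ as ln2/(60·koff)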
# [3] = biological target: T3, human PD-1 dimer (human PD-1-mFc or human PD-1-hFc) (human, UniProt Q15116 25-170); experiment: SPR, mAb captured, 37C;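 note: Real-time Biacore biosensor, PD-1 dimer flowed over anti-PD-1 antibody surface, rate constants fitted to a 1:1 model, KD derived as kd/ka and t½ as ln2/(60·kd)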
# T3 construct: also called hPD-1-mFc; hPD1-hFc
# [4] = biological target: T3, human PD-1 dimer (human PD-1-mFc or …); experiment: SPR, mAb captured, 25C;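 for result: rates from fitting Biacore data for PD-1 binding to anti-PD-1 antibodies with a 1:1 model, KD computed as koff/kon and t½ as ln2/(60·koff)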
# [5] = biological target: T4, recombinant human PD-1 expressed with a C-terminal myc-myc-hexahistidine tag (human); experiment: SPR, mAb captured, 37C;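 note: rate constants from fitting sensorgrams to a 1:1 binding model, KD derived as kd divided by ka and half-life as ln2/(60·kd)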
# T4 construct: monomeric; also called hPD-1-MMH; human PD-1-MMH
# [6] = biological target: T1, recombinant cynomolgus monkey PD-1 …; experiment: SPR, mAb captured, 37C;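 note: rate constants from fitting sensorgrams to a 1:1 binding model, with Kd computed as koff/kon and half-life as ln2/(60·koff), PD-1 flowing over anti-PD-1 antibody surfaces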
# T3 sequence (Q15116 25-170 C93S): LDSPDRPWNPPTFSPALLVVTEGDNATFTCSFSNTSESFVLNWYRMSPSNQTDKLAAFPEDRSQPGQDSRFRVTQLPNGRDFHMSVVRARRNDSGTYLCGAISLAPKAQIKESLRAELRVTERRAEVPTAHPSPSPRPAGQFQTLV
Kd [1],koff [1],kon [1],t½ [1],Binder,other results
38.5 nM,0.00134 s⁻¹,34700 M⁻¹ s⁻¹,8.6 min,"H4xH9145P2 (antibody, human IgG4, V domains shown, H4xH: modified human IgG4 Fc) VH: QVQLVESGGGVVQPGRSLRLSCSASGFTFSAYAMHWVRQAPGKGLEWVAAISYGGSDKYYADSVKGRFTISRDNSKNTLYLQMNSLRTDDTAVYYCAKSAHWNFFFDYWGQGTLVTVSS VL: not shown",–
–,–,–,–,"H4xH8992P (antibody, V domains shown, Human IgG4 Fc with 2 or more amino acid changes (H4xH)) VH: EVQLVESGGGLVQPGRSLRLSCVASGFALHDYAMHWVRQVPGKGLEWVSSISWNSGVIGYADSLKGRFTISRDNAKNSLYLQMNSLRAEDTALYYCAKGSGSYYVSWFDPWGQGTLVTVSS VL: not shown",Kd [2]: 200 nM; t½ [2]: 0.3 min; Kd [3]: 2.91 nM; t½ [3]: 11 min; Kd [4]: 0.68 nM; t½ [4]: 72 min
141 nM,–,–,0.5 min,"H4xH8992P (antibody, human IgG4, V domains shown, H4xH: modified human IgG4 Fc) VH: EVQLVESGGGLVQPGRSLRLSCVASGFALHDYAMHWVRQVPGKGLEWVSSISWNSGVIGYADSLKGRFTISRDNAKNSLYLQMNSLRAEDTALYYCAKGSGSYYVSWFDPWGQGTLVTVSS VL: not shown",–
23.4 nM,0.000706 s⁻¹,30100 M⁻¹ s⁻¹,16 min,"H2aM7791N (antibody, mouse IgG2a, V domains shown, Human variable domains, mouse IgG2a Fc; also called H2M7791N) VH: QMQLQQWGAGLLKPSETLSLTCVVYGGSLNGYYWSWIRQSPGKGLEWIGEIDHSGSTNYNPSLKNRVTMSVDTSKIQFSLKLTSVTVADTAVYYCAREGLLPFDYWGQGTLVTVSS VL: EIVLTQSPGTLSLSPGERVTLSCRASQSVYSNYLAWYQQNPGQAPRLLIYAASNRATGIPDRFSGSGSGTDFTLTISRLEPEDFAVYYCHQYATSPWTFGQGTKVEIK",–
10.2 nM,0.0012 s⁻¹,117000 M⁻¹ s⁻¹,10 min,"H4xH9135P2 (antibody, human IgG4, V domains shown, H4xH: modified human IgG4 Fc) VH: EVQLVESGGSVVRPGGSLRLSCVVSGFTFEDYGLSWVRQIPGKGLEWVSGISWTGGNTGYADSVKGRFTISRDNAKNSLYLQMNSLRAEDTALYHCTRDRQWLMQWYFDYWGQGTLVTVSS VL: not shown",–
30.1 nM,0.000998 s⁻¹,33200 M⁻¹ s⁻¹,12 min,"H4xH9120P2 (antibody, human IgG4, V domains shown, H4xH: modified human IgG4 Fc) VH: QVQLVQSGAEVKRPGASVKVSCKASGYTFTSFYMYWVRQAPGQGLEWMGIINPSDGSTSNAQKFQGRVTMTRDTSTSTVYMELSSLRSEDTAVYYCARRVAGDIFDIWGQGTMVTVSS VL: not shown",–
–,–,–,–,"H2aM7796N (antibody, mouse IgG2a, V domains shown, Human variable regions, mouse IgG2a Fc; also called H2M7796N) VH: QVQLVESGGGVVQPGRSLRLSCAASGFTFSSYGMHWVRQAPGKGLEWVAIIWSDGDSEYNLDSVKGRFTISRDNSKNTLYLQMNSLRVEDSAVYYCARDRDLEDIWGQGTMVTVSS VL: DIQMTQSPSSLSASVGDRVTITCRASQGIRNDLGWYQQKPGKAPKRLIYAASNLQSGVPSRFSGSGSGTEFTLTISSLQPEDFATYYCLQHNSYPLTFGGGTKVEIK",binding result [2]: no binding (tested: up to 200 nM); Kd [3]: 19.6 nM; koff [3]: 0.000434 s⁻¹; kon [3]: 22100 M⁻¹ s⁻¹; t½ [3]: 27 min; Kd [4]: 3.32 nM; koff [4]: 8.67e-05 s⁻¹; kon [4]: 26100 M⁻¹ s⁻¹; t½ [4]: 133 min; Kd [5]: 1510 nM; koff [5]: 0.0165 s⁻¹; kon [5]: 10900 M⁻¹ s⁻¹; t½ [5]: 0.7 min
38.5 nM,0.000359 s⁻¹,9320 M⁻¹ s⁻¹,32 min,"H2aM7780N (antibody, mouse IgG2a, V domains shown, also called H2M7780N) VH: QVQLVESGGGVVQSGRSLRLSCAASGFTFSSYGMHWVRQAPGKGLEWVAVIWYDGSNIYYSDSVKGRFTISRANSKNTLYLQMNSLRAEDTAVYYCARPGHWNYFFEYWGQGTLVTVSS VL: DIQMTQSPSSLSASVGDRVTITCRASQSINNYLNWYQQKPGKAPKLLIYTASSLQSGVPSRFSGSGSGTDFTLTISSLQPEDFATYYCQQSYSTPPLTFGQGTQLEIK",–
–,–,–,–,"H2aM7780N (antibody, mouse IgG2a, V domains shown, Human variable regions, mouse IgG2a Fc (H2aM prefix); also called H2M7780N) VH: QVQLVESGGGVVQSGRSLRLSCAASGFTFSSYGMHWVRQAPGKGLEWVAVIWYDGSNIYYSDSVKGRFTISRANSKNTLYLQMNSLRAEDTAVYYCARPGHWNYFFEYWGQGTLVTVSS VL: DIQMTQSPSSLSASVGDRVTITCRASQSINNYLNWYQQKPGKAPKLLIYTASSLQSGVPSRFSGSGSGTDFTLTISSLQPEDFATYYCQQSYSTPPLTFGQGTQLEIK",Kd [6]: 60.5 nM; koff [6]: 0.00138 s⁻¹; kon [6]: 22900 M⁻¹ s⁻¹; t½ [6]: 8.3 min; Kd [2]: 31.5 nM; koff [2]: 0.000315 s⁻¹; kon [2]: 10000 M⁻¹ s⁻¹; t½ [2]: 37 min; Kd [3]: 0.23 nM; koff [3]: 2.29e-05 s⁻¹; kon [3]: 99400 M⁻¹ s⁻¹; t½ [3]: 505 min; Kd [4]: 0.236 nM; koff [4]: 9.94e-06 s⁻¹; kon [4]: 42100 M⁻¹ s⁻¹; t½ [4]: 1160 min; Kd [5]: 55.8 nM; koff [5]: 0.00152 s⁻¹; kon [5]: 27200 M⁻¹ s⁻¹; t½ [5]: 7.6 min
2.1 nM,5.31e-05 s⁻¹,25300 M⁻¹ s⁻¹,218 min,"H1M7789N (antibody, mouse IgG1, V domains shown, Human variable domains, mouse IgG1 Fc (H1M prefix)) VH: EVQLLESGGGLVQPGGSLRLSCSASGFTFSSYTMNWVRQAPGKGLEWVSGISDTGGNTYYTDSVKGRFTVSRDNSKNTLSLQMNSLRAEDTAVYYCAKDQGGSYPYYFHYWGQGSLVTVSS VL: DIQMTQSPSSLSASVGDRVTITCRASQSISSYLIWYQQKPGTAPKFLIYAASSLQSGVPSRFSGCGSGTDFTLTISSLQPEDFATYYCQQSYSTPPITFGQGTRLEIK",–
38 nM,0.00212 s⁻¹,55000 M⁻¹ s⁻¹,5.4 min,"H2aM7794N (antibody, V domains shown, Human variable domains, mouse IgG2a Fc; also called H2M7794N) VH: QLQLQESGPDLVKPSDTLSLTCTVSDDSISSTTYYWAWIRQPPGKGLEWIGSMSYNGNNYYNPSLKSRVAISAGTSQKQFSLKLTSVTAADTAVYHCARHLGYNGNWYPFDFWGQGILVTVSS VL: not shown",–
14.5 nM,0.00149 s⁻¹,102000 M⁻¹ s⁻¹,7.8 min,"H4xH9034P (antibody, V domains shown, Human IgG4 Fc with 2 or more amino acid changes as in US20100331527 (H4xH prefix); also called H4xH9034P2) VH: EVQLVESGGGVVRPGGSLRLSCTASGFTFDDYGMSWVRQAPGKGLEWISGIGWTGGRSSYADSVRGRFTISRDNAKNSLYLQMNSLGAEDTALYYCARDRQWLVQWYFDYWGQGTLVTVSS VL: not shown",–
161 nM,0.00947 s⁻¹,58800 M⁻¹ s⁻¹,1.2 min,"H1M7800N (antibody, mouse IgG1, V domains shown, Human variable domains, mouse IgG1 Fc) VH: EVQLVESGGGLVQPGGSLRLSCAASGFTVSNNYMSWVRQAPGKGLEWVSVIYSGGFTYYTDSVKGRFTISRHNSKNTLYLQMNSLRAEDTAVYYCARYYYDTSDYWTFFDYWGQGTLVTVSS VL: EIVMTQSPATLSVSPGERATLSCRASQSVSSNLAWYQQKPGQAPRLLIYGASTRATGIPARFSGSGSGTEFTLTISSLQSGDFAVYYCQQYNNWPLTFGGGTKVEIN",–
23.3 nM,0.00148 s⁻¹,63500 M⁻¹ s⁻¹,8 min,"H4H7795N2 (antibody, human IgG4 S228P, kappa, V domains shown) VH: EVQVVESGGGLVEPGRSLRLSCKASGFTFDDYAMHWVRQTPGKALEWVSGISWSGNNIGYADSVKGRFTISKDDAKNSLYLQMNSLRPEDTALYYCTKDISITGTLDAFDVWGQGTMVTVSS VL: DIQMTQSPISVSASVGDRVTITCRASQGISNWLAWYQQKPGIAPKLLIYSASSLQSGVPSRFRGSGSGTDFTLTIGSLQPEDFATYYCQQAHSFPLTFGGGTKVEIKR",–
23.5 nM,0.00115 s⁻¹,49100 M⁻¹ s⁻¹,10 min,"H2aM7795N (antibody, mouse IgG2a, V domains shown, Human variable domains, mouse IgG2a Fc; also called H2M7795N) VH: EVQVVESGGGLVEPGRSLRLSCKASGFTFDDYAMHWVRQTPGKALEWVSGINWSGNNIGYADSVKGRFTISKDDAKNSLYLQMNSLRPEDTALYYCTKDISITGTLDAFDVWGQGTMVTVSS VL: DIQMTQSPISVSASVGDRVTITCRASQGISNWLAWYQQKPGIAPKLLIYSASSLQSGVPSRFRGSGSGTDFTLTIGSLQPEDFATYYCQQAHSFPLTFGGGTKVEIK",–
39.4 nM,–,–,–,"H4H9019P (antibody, human IgG4, V domains shown, Fully human, human IgG4 Fc (H4H prefix)) VH: EVQLVESGGGVVRPGGSLRLSCAASGFTFDDYGMSWVRQVPGKGLEWVSGISWNDGKTVYAESVKGRFIISRDNAKNSLYLEMNSLRAEDTALYYCARDWQYLIERYFDYWGQGTLVTVSS VL: not shown",–
4.62 nM,0.000475 s⁻¹,103000 M⁻¹ s⁻¹,24 min,"H4xH9035P (antibody, human IgG4, V domains shown, H4xH: modified human IgG4 Fc; also called H4xH9035P2) VH: EVQLVESGGRVVRPGGSLRLSCAASGFTFDDYGMSWVRQLPGKGLEWVAGISWNDGKTVYAESVKGRFIISRDNAKNSLHLEMNSLRAEDTALYYCARDWQYLIDRYFDFWGQGTLVTVSS VL: not shown",–
14.5 nM,0.000719 s⁻¹,49500 M⁻¹ s⁻¹,16 min,"H4xH9128P2 (antibody, human IgG4, V domains shown, H4xH: modified human IgG4 Fc) VH: QVQLQESGPGLVKPSETLSLTCTVSGGSISSYHWNWIRQSPGKGLEWIGYIYYIGSTDYNPSLESRVTISVDTSKNQFSLKLSSVTAADTAVYYCARVPVGATGASDVWGQGTMVTVSS VL: not shown",–
10.9 nM,0.000795 s⁻¹,73200 M⁻¹ s⁻¹,15 min,"H4xH9037P (antibody, human IgG4, V domains shown, H4xH: modified human IgG4 Fc; also called H4xH9037P2) VH: EVQLVESGGGLVQPGGSLRLSCAASGFTFDDYAMHWVRQAPGKGLEWVSGIGWSSGSIGYADSVKGRFTISRDNAKNSLYLQMDSLRPEDSALYYCAKAYTFMITLYFDYWGQGTLVTVSS VL: not shown",–
19.6 nM,0.000388 s⁻¹,19700 M⁻¹ s⁻¹,30 min,"H2aM7788N (antibody, mouse IgG2a, V domains shown, Human variable domains, mouse IgG2a Fc; also called H2M7788N) VH: EVQLVESGGGLVQPGGSLRLSCGASGFTFRNYDMHWVRQITGKGLEWVSAIGSAGDTYYPDSVKGRFTISRENAKNSLYLQMNSLRVGDTAVYYCTRDIHCSSTRCYGMDVWGQGTTVTVSS VL: not shown",–
